In patent US12281340B2, “Method of producing N-acyl-amino group-containing compound” (AJINOMOTO CO., INC., priority 2018, dated 2025):

How the values were obtained:
Assay type in all cases: biochemical
Design in all cases: key: +: Detected; −: Not detected
[1] = Synthesis of N-acylamino acids from various fatty acids using purified acylamino acid synthetase, UPLC-MS detection
Outline: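 Purified enzyme (200 μg/mL) with 5 mM amino acid, 5 mM sodium fatty acid (3 mM palmitate or stearate, plus 10% methanol), 10 mM ATP, 10 mM MgCl2, 1 mM DTT in 50 mM Tris-HCl pH 8.0, shaken 24 h at 25 °C. Amino acid varied by enzyme; product mass detected by UPLC-MS (ESI-negative).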

[2] = Synthesis of N-caprinoyl-amino acid derivative, N-caprinoyl-D-amino acid and N-caprinoyl-peptide using purified acylamino acid synthetase, UPLC-MS detection; conditions: +ATP
Outline: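 Purified enzyme (50 μg/mL) was incubated with 5 mM sodium caprate, 5 mM amino acid derivative, D-amino acid or peptide, 10 mM ATP, 10 mM MgCl2 and 1 mM DTT in 50 mM Tris-HCl, pH 8.0, for 24 h at 25 °C. After acidic methanol stop, UPLC-MS looked for the mass of the N-caprinoyl product.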

[3] = Synthesis of N-caprinoylamino acid using purified acylamino acid synthetase, UPLC-MS detection; conditions: +ATP
Outline: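 Purified enzyme (50 μg) with 5 mM amino acid, 5 mM sodium caprate, 10 mM ATP, 10 mM MgCl2, 1 mM DTT in Tris-HCl pH 8.0, 24 h at 25° C; product detected by UPLC-MS (ESI-negative) as the N-caprinoyl amino acid mass signal.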

B1: SsGH3: GH3 auxin-responsive promoter superfamily from Synechococcus sp. PCC 7335, His-tagged (protein)
chain: MVIHTIPKEILDSVASTGDVFAYHLLRSTGDIGETVLQYLLCLAAKVNLTGIEQDTYNADKVQEQLLNDILRSENKTLYGKKYNFDSLNVDSFRSSLPLTSYENYRESIDNVVQTGNYSQLVSEPITLFQESSGTTGKVKLIPRTNKFTLSAMRAFQAIEAVVQSHFQNPSSSSQRVLALVNTSPTKLTPTGIPRGTGTSGGLNDALQKFKLANYLIDIKYSSPSPVFLISNTEAAYYCHLLFGLLDSDINDISANFAATVLNAMKILEKAWTQLVEDIRQGKLYAGLDIDEATRRELEIRLRANPERARELQAYFEEGFEGILPRIWPSLSCIQCITTGSMQLYTDALRYYSGTVPFFSGSYGASEAWIGVNLDPEREPPAFVVTPHTAFFEFIPQDAIDQEQSATVCLTDLKPGESYEVVVTNMSGLYRYRVGDVVRCVGYHHKSPMIEFMYRRQTLLNLFGEKVSEDVIYSALSTTLREFGMAIQDIDYTCRHEFEGTPWRYVVYLEPADYEGCSSQHEMVQQRLDEVLCNLSDRYRQLREVGSIGSLKLKLVREGTFSGLKTRLLSQEHSDSQFKMPRLLTETALISFMESSL
modifications: His-tag; Synechococcus PCC 7335
notes: GH3 auxin-responsive promoter superfamily from Synechococcus sp; PCC 7335, His-tagged
[1]; substrates L-Ala and Capric acid
  signal of molecular weight corresponding to N-acylamino acid: +
[1]; substrates L-Ala and Caproic acid
  signal of molecular weight corresponding to N-acylamino acid: +
[1]; substrates L-Ala and Caprylic acid
  signal of molecular weight corresponding to N-acylamino acid: +
[1]; substrates L-Ala and Lauric acid
  signal of molecular weight corresponding to N-acylamino acid: +
[1]; substrates L-Ala and Linoleic acid
  signal of molecular weight corresponding to N-acylamino acid: −
[1]; substrates L-Ala and Palmitic acid
  signal of molecular weight corresponding to N-acylamino acid: −
[1]; substrates L-Ala and myristic acid
  signal of molecular weight corresponding to N-acylamino acid: +
[2]; substrates Carnosine and sodium caprate
  signal of molecular weight corresponding to N-caprinoyl compound: −
[2]; substrates D-Ala and sodium caprate
  signal of molecular weight corresponding to N-caprinoyl compound: +
[2]; substrates D-Asp and sodium caprate
  signal of molecular weight corresponding to N-caprinoyl compound: +
[2]; substrates D-Cys and sodium caprate
  signal of molecular weight corresponding to N-caprinoyl compound: −
[2]; substrates D-Glu and sodium caprate
  signal of molecular weight corresponding to N-caprinoyl compound: +
[2]; substrates D-Ile and sodium caprate
  signal of molecular weight corresponding to N-caprinoyl compound: −
[2]; substrates D-Lys and sodium caprate
  signal of molecular weight corresponding to N-caprinoyl compound: −
[2]; substrates L-Asp-L-Phe and sodium caprate
  signal of molecular weight corresponding to N-caprinoyl compound: −
[2]; substrates L-Gly-L-Gly and sodium caprate
  signal of molecular weight corresponding to N-caprinoyl compound: +
[2]; substrates Sarcosine and sodium caprate
  signal of molecular weight corresponding to N-caprinoyl compound: −
[2]; substrates Taurine and sodium caprate
  signal of molecular weight corresponding to N-caprinoyl compound: +
[3]; substrates GABA and sodium caprate
  signal of molecular weight corresponding to N-caprinoyl amino acid: −
[3]; substrates Gly and sodium caprate
  signal of molecular weight corresponding to N-caprinoyl amino acid: +
[3]; substrates L-Ala and sodium caprate
  signal of molecular weight corresponding to N-caprinoyl amino acid: +
[3]; substrates L-Arg and sodium caprate
  signal of molecular weight corresponding to N-caprinoyl amino acid: −
[3]; substrates L-Asn and sodium caprate
  signal of molecular weight corresponding to N-caprinoyl amino acid: −
[3]; substrates L-Asp and sodium caprate
  signal of molecular weight corresponding to N-caprinoyl amino acid: +
[3]; substrates L-Cys and sodium caprate
  signal of molecular weight corresponding to N-caprinoyl amino acid: −
[3]; substrates L-Gln and sodium caprate
  signal of molecular weight corresponding to N-caprinoyl amino acid: −
[3]; substrates L-Glu and sodium caprate
  signal of molecular weight corresponding to N-caprinoyl amino acid: −
[3]; substrates L-His and sodium caprate
  signal of molecular weight corresponding to N-caprinoyl amino acid: −
[3]; substrates L-Ile and sodium caprate
  signal of molecular weight corresponding to N-caprinoyl amino acid: +
[3]; substrates L-Leu and sodium caprate
  signal of molecular weight corresponding to N-caprinoyl amino acid: +
[3]; substrates L-Lys and sodium caprate
  signal of molecular weight corresponding to N-caprinoyl amino acid: −
[3]; substrates L-Met and sodium caprate
  signal of molecular weight corresponding to N-caprinoyl amino acid: +
[3]; substrates L-Phe and sodium caprate
  signal of molecular weight corresponding to N-caprinoyl amino acid: −
[3]; substrates L-Pro and sodium caprate
  signal of molecular weight corresponding to N-caprinoyl amino acid: −
[3]; substrates L-Ser and sodium caprate
  signal of molecular weight corresponding to N-caprinoyl amino acid: +
[3]; substrates L-Thr and sodium caprate
  signal of molecular weight corresponding to N-caprinoyl amino acid: −
[3]; substrates L-Trp and sodium caprate
  signal of molecular weight corresponding to N-caprinoyl amino acid: −
[3]; substrates L-Tyr and sodium caprate
  signal of molecular weight corresponding to N-caprinoyl amino acid: −
[3]; substrates L-Val and sodium caprate
  signal of molecular weight corresponding to N-caprinoyl amino acid: +
[3]; substrates β-Ala and sodium caprate
  signal of molecular weight corresponding to N-caprinoyl amino acid: +
